The text below walks through data of article PMC5973687 (mAbs, 2018).

Assay [1] addresses DR3-Fc (UniProt Q93038). Briefly: ELISA. On the technique in general: ELISA stands for enzyme-linked immunosorbent assay.
Assay [2] has as its target T1, DcR3-Fc (UniProt O95407 30-300).
T1 sequence (looked up): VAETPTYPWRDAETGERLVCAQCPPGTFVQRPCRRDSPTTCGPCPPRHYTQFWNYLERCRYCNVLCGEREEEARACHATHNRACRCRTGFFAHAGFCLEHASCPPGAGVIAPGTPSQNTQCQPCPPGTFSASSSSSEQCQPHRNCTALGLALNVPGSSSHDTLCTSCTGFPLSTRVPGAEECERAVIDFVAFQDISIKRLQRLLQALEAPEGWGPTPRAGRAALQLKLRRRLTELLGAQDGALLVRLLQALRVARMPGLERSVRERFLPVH
Briefly: ELISA.

Chain of DR3-Fc (Q93038 25-199): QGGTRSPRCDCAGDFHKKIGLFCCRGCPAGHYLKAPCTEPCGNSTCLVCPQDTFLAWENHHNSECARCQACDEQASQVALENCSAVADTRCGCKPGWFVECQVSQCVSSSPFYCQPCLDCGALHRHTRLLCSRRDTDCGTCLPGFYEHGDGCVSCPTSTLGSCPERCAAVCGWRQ

In assay [1], TL1A-R32A (ligand) gave a decrease in binding against wild-type TL1A of 50%.

B1: human TL1A (extracellular domain, recombinant) (ligand, UniProt O95150 57-251, looked up)
chain: SQLRAQGEACVQFQALKGQEFAPSHQQVYAPLRADGDKPRAHLTVVRQTPTQHFKNQFPALHWEHELGLAFTKNRMNYTNKFLLIPESGDYFIYSQVTFRGMTSECSEIRQAGRPNKPDSITVVITKVTDSYPEPTQLLMGTKSVCEVGSNWFQPIYLGAMFSLQEGDKLMVNVSDISLVDYTKEDKTFFGAFLL
modifications: biotin (single-site biotinylated, site not stated) in the competition ELISA
B1: the binding result in assay [2] was “binds”.
